According to patent US20220096608:
Where a chain is given by its changes, count along the chain named. In names and notes the source's numbering stands.

Biological target: T1, α2-antiplasmin, P08697
T1 chain: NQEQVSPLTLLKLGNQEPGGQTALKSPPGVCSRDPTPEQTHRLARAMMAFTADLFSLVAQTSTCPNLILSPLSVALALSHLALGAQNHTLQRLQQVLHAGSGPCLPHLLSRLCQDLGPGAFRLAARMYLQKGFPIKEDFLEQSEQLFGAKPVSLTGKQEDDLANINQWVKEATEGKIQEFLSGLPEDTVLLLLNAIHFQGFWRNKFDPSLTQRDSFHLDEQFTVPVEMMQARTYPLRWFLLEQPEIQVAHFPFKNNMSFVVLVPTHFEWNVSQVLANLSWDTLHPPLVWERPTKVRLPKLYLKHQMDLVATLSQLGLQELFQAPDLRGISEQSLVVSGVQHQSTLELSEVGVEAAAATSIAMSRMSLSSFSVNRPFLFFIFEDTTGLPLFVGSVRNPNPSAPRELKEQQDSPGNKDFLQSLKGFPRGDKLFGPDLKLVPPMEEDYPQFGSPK

B1: Mono-PEGylated Micro-plasmin variant (40 kDa PEG) V82C Catalytic Domain (SEQ ID NO. 4) (protein)
chain: APSFDCGKPQVEPKKCPGRVVGGCVAHPHSWPWQVSLRTRFGMHFCGGTLISPEWVLTAAHCLEKSPRPSSYKVILGAHQECNLEPHVQEIEVSRLFLEPTRKDIALLKLSSPAVITDKVIPACLPSPNYVVADRTECFITGWGETQGTFGAGLLKEAQLPVIENKVCNRYEFLNGRVQSTELCAGHLAGGTDSCQGDSGGPLVCFEKDKYILQGVTSWGLGCARPNKPGVYVRVSRFVTWIEGVMRNN
B1 was tested, and the “In vitro Half-life (of inactivation by α2-antiplasmin)” value (“In vitro Half-life” below) was greater than 7 min.

B2: Mono-PEGylated Micro-plasmin variant (20 kDa PEG) V82C Catalytic Domain (SEQ ID NO. 4) (protein)
chain: B1 chain
With B2 the “In vitro Half-life” value was 6 to 7 min.

B3: Mono-PEGylated Micro-plasmin variant (20 kDa PEG) H87C Catalytic Domain (SEQ ID NO. 9) (protein)
chain: B1 chain with C82V, H87C
With B3 the “In vitro Half-life” value was 6 to 7 min.

B4: Wild-type Micro-plasmin (SEQ ID NO. 2) (protein)
chain: B1 chain with C82V
For B4, the “In vitro Half-life” value was greater than 5 min.

B5: Bi-PEGylated Micro-plasmin variant (20 kDa-20 kDa PEG) V82C-H87C Catalytic Domain (SEQ ID NO. 12) (protein)
chain: B1 chain with H87C
For B5, the “In vitro Half-life” value was greater than 10 min.

B6: Mono-PEGylated Micro-plasmin variant (40 kDa PEG) H87C Catalytic Domain (SEQ ID NO. 9) (protein)
chain: B1 chain with C82V, H87C
B6 was tested, and the “In vitro Half-life” value was greater than 7 min.
